Measurements as given in patent US20240409645A1 (DUALYX, published 2024).
Positions count from the first letter of the chain named.

B1: FJ1427_P035MP04G07 (VHH)
VHH: QVQLVESGGGWVQVGESLRLSCAPSGRTFVSGIMGWFRQAPGKEREFVARIILNNNSTRYTDSVKGRFTISRDSAKNTMYLQMNTLRPEDTAVYYCAARDRYGSGNSLSPSAYDYWGQGTQVTVSS
notes: VHH in periplasmic extract; also called clone nr
B2: FJ1427_P035MP04B06 (VHH)
VHH: B1 VHH with V2L, A23V
notes: VHH in periplasmic extract; also called clone nr; 330
B3: FJ1427_P035MP04D09 (VHH)
VHH: B1 VHH with S31R, N55S, T61I, T85S
notes: as for B1
B4: FJ1427_P035MP04G03 (VHH)
VHH: B1 VHH with Q1E, N84D, T85S
notes: as for B1
B5: FJ1427_P035MP04E12 (VHH)
VHH: B1 VHH with V2L, V30A
notes: as for B1
B6: FJ1427_P035MP04C10 (VHH)
VHH: B1 VHH with V5Q, A23V
notes: as for B1
B7: FJ1427_P035MP04E04 (VHH)
VHH: B1 VHH with Q1E, A23V, N55S, T85S
notes: as for B1
B8: FJ1427_P035MP04F10 (VHH)
VHH: B1 VHH with V2L, A23V, L53S
notes: as for B1
B9: FJ1427_P035MP04B10 (VHH)
VHH: B1 VHH with Q1E, T61I, N84D, T85S, S126L
notes: as for B1
B10: FJ1427_P035MP04G08 (VHH)
VHH: B1 VHH with N84D, T85S
notes: as for B1
B11: FJ1427_P035MP04H09 (VHH)
VHH: B1 VHH with Q1E
notes: VHH in periplasmic extract; also called clone nr; 360
B12: FJ1427_P035MP04D12 (VHH)
VHH: B1 VHH with E16K, T61I, N84D, T85S
notes: VHH in periplasmic extract; also called clone nr; 380
B13: 30-MP04C03 (VHH)
VHH: EVQLVESGGGWVQDGGSLRLSCALSGRTFVRGIMGWFRQAPGKEREFVARIIWHINSTRYADSVKGRFTISRDSAKNTMYLQMDSLRPEDTAVYYCAARDRYGSGNSLSPSAYDYWGQGTQVTVSS
notes: VHH in periplasmic extract; also called FJ1427_P035MP04C03; clone nr
B14: FJ1427_P035MP04C05 (VHH)
VHH: B1 VHH with N77D
notes: as for B1
B15: FJ1427_P035MP04B02 (VHH)
VHH: B1 VHH with A40T
notes: as for B1
B16: FJ1427_P035MP04B07 (VHH)
VHH: B1 VHH with Q1E, A40T, M79L
notes: as for B1
B17: FJ1427_P035MP04A07 (VHH)
VHH: B1 VHH with V2L, T61I, N84D, T85S
notes: as for B1
B18: FJ1427_P035MP04H11 (VHH)
VHH: B1 VHH with L18P, A40T
notes: as for B1
B19: FJ1427_P035MP04F11 (VHH)
VHH: B1 VHH with A40T, M79L
notes: as for B1
B20: FJ1427_P035MP04G10 (VHH)
VHH: B1 VHH with N55S, V64A, N84D, T85S
notes: VHH in periplasmic extract; also called clone nr; 367
B21: FJ1427_P035MP04C12 (VHH)
VHH: B1 VHH with Q1E, T61I, N84D, T85S
notes: as for B1
B22: FJ1427_P035MP04A10 (VHH)
VHH: B1 VHH with Q1E
notes: as for B1
B23: FJ1427_P035MP04F09 (VHH)
VHH: B1 VHH with S31R, Y80W, N84D, T85S
notes: as for B1
B24: FJ1427_P035MP04A03 (VHH)
VHH: B1 VHH with Q1E, A40T
notes: as for B1
B25: FJ1427_P035MP04H10 (VHH)
VHH: B1 VHH with W11L, V14A, E16G, T61I, N84D, T85S
notes: as for B1
B26: FJ1427_P035MP04G11 (VHH)
VHH: B1 VHH with K43E
notes: as for B1
B27: FJ1427_P035MP04B11 (VHH)
VHH: B1 VHH with Q1E, T61I, N84D, T85S
notes: VHH in periplasmic extract; also called clone nr; 370
B28: FJ1427_P035MP04E02 (VHH)
VHH: B1 VHH with A40T
notes: VHH in periplasmic extract; also called clone nr; 301
B29: 27-MP04G01 (VHH)
VHH: QVQLVESGGGLVQAGGSLTLSCAAPGRTFGTDVVGWFRQAPGKEREFVASISRSGDGIYYDDSVKGRFTISRNNAWNTVNLQMNSLKVEDTAVYYCAAGDGWSTYDYWGQGTQVTVSS
notes: VHH in periplasmic extract; also called FJ1427_P035MP04G01; clone nr
B30: FJ1427_P035MP04C01 (VHH)
VHH: B29 VHH with P25S, G30S, S85N
notes: as for B1
B31: 29-MP04H02 (VHH)
VHH: QVQLVESGGGLVQAGGSLRLACVASGLTFDNYYMGWFRQAPGKEREFVAGIIWNGDHTAYADSIKGRFTISRDNAKNTAYLRMNSLKPEDTAVYYCAATFWIERATTPDIGQYAYWGQGTQVTVSS
notes: VHH in periplasmic extract; also called FJ1427_P035MP04H02; clone nr
B32: FJ1427_P035MP04D11 (VHH)
VHH: EVQLVESGGGLVQAGGSLRLSCAASGRTFGAVAVGWFRQVPGKEREFVAAINRSGSATKYADSVKGRFTISRDNAESPVFLQMNSLKPEDTAVYYCAADSLPYGRPYYFQTSAGEYDYWGQGTQVTVSS
notes: as for B1
B33: 32-MP04A08 (VHH)
VHH: QVQLVESGGGLVQAGGSLRLSCAASGRTFGSTAVGWFRQVPGKEREFVSAINRSGSATTYADSVKGRFTISRDNAKNTVYLQMNSLTPEDTGVYYCAADSLPYGRPYYFQRSAGEYDYWGQGTQVTVSS
notes: VHH in periplasmic extract; also called FJ1427_P035MP04A08; clone nr
B34: 36-MP07F02 (VHH)
VHH: QVQLVESGGGLVQAGGSLRLSCAASGRTLSRYAMGWFRQAPGSEREFVAASSWGGDTFYADSVEGRFTFSRDNAKNAVYLQMNSLQPEDTAAYYCAAAPTSFPTTAYSSSNSYAYWGQGTQVTVSS
notes: VHH in periplasmic extract; also called FJ1427_P035MP07F02; clone nr; 590
B35: FJ1427_P035MP04B01 (VHH)
VHH: B34 VHH with Q1E, G16A, S43K, F58Y, A92V, A97G, P103A
notes: VHH in periplasmic extract; also called clone nr; 290
B36: 35-MP07G01 (VHH)
VHH: QVQLQESGGGLVQGGGSLRLSCAASGGIFSSYAMGWFRQAPGKEREFVAAISRSGRSTNYADSVKGRFTISRDNAKSTVYLQMNSLKPEETAVYYCAAGRYYNSAYDPSPGDFGSWGHGTQVTVSS
notes: VHH in periplasmic extract; also called FJ1427_P035MP07G01; clone nr

Columns and labels:
[1] = biological target: T1, human IL-2Rγ (common cytokine receptor γ-chain) (human, UniProt P31785 23-262, limits assumed); assay: SPR off-rate ranking, periplasmic extract on immobilised protein
T1 construct: Recombinant protein coated on the plate or immobilised on a CM5 chip; also called hu IL-2R; CD132
T1 sequence: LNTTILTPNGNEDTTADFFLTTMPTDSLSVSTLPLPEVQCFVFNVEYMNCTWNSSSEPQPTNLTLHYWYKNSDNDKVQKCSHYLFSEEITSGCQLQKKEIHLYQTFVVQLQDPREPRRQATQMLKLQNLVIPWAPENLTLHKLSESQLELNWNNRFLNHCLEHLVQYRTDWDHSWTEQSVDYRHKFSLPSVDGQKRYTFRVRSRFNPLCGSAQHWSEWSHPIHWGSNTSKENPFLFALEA
Description: SPR was performed to determine dissociation rates using Biacore 3000 instrument (GE Healthcare). Briefly, human and mouse IL-2R proteins were immobilized on carboxylmethyl dextran sensor chip (CM5) at approximately 2500 RUs using amine coupling in acetate buffer (GE Healthcare). The VHH-containing P.E. were loaded with a flow rate of 30 uL/min and the off-rates were measured over a 120s period.

[2] = biological target: T1, human IL-2Rγ (common cytokine receptor …); assay: PE binding ELISA, periplasmic extract on coated protein
Description: In a binding ELISA, human or mouse IL-2Rα, IL-2Rβ and IL-2Rγ proteins were coated directly on maxisorp microtiter plates overnight at 4° C. Free binding sites were blocked using 4% Marvel in PBS for 1 hour. Next, 1:5 dilution of P.E. in 1% Marvel/PBS were added to wells and incubated for 1 hour. […] Binding specificity was determined based on O.D. at 450 nm values compared to negative controls.

Binder | koff [1] [s⁻¹] | OD (PE binding ELISA) [2] [OD450 nm]
B1 | 0.0091 | 0.863
B2 | 0.0208 | 1.45
B3 | 0.0207 | 1.93
B4 | 0.00744 | 0.933
B5 | 0.00688 | 1.33
B6 | 0.0205 | 1.33
B7 | 0.00796 | 1.73
B8 | 0.0147 | 0.751
B9 | 0.00749 | 1.47
B10 | 0.00892 | 1.84
B11 | 0.0222 | 1.87
B12 | 0.0072 | 1.05
B13 | 0.00844 | 1.49
B14 | 0.00775 | 1.81
B15 | 0.0285 | 1.97
B16 | 0.0187 | 1.94
B17 | 0.0196 | 1.9
B18 | 0.0103 | 1.77

Binder | koff [1] [s⁻¹] | OD (PE binding ELISA) [2] [OD450 nm]
B19 | 0.0111 | 2.01
B20 | 0.0104 | 0.839
B21 | 0.00732 | 1.68
B22 | 0.0204 | 1.85
B23 | 0.00795 | 1.77
B24 | 0.00712 | 1.87
B25 | 0.00998 | 1.8
B26 | 0.0116 | 1.4
B27 | 0.0103 | 0.75
B28 | 0.00652 | 1.98
B29 | 0.00131 | 0.362
B30 | 0.00124 | 0.264
B31 | 0.00625 | 0.157
B32 | 0.0401 | 1.41
B33 | 0.0616 | 0.407
B34 | 0.00331 | 0.896
B35 | 0.00327 | 0.873
B36 | – | 0.134
